Test results: patent US20120195900A1 (AbbVie / Abbott, published 2012)
Read-outs that look alike come from different tables or passages of the source. Values belong to the binder of their own block, whether it stands above or below them.

Tests used:
hIL-13 = hIL-13 (human, UniProt P35225 35-146, limits assumed); test: cell-based or functional assay
human IL-12 [1] = biological target: T1, human IL-12 (human, UniProt P29459 23-219; P29460 23-328, biotinylated in the ELISA (site not stated)); test: ELISA, biotinylated IL-12 on streptavidin plates, anti-human IgG detection (column head: ED50)
T1 construct: The ELISA paragraph says only 'Biotinylated IL-12'; the bioassay says 'human IL-12' / 'rhIL-12'; also called rhIL-12; Biotinylated IL-12
T1 sequence (looked up) 1: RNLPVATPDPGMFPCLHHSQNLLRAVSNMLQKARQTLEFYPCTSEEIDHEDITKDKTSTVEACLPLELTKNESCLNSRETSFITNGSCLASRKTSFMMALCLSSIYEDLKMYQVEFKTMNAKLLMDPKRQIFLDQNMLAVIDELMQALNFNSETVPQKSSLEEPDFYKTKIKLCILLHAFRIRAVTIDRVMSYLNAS
T1 sequence (looked up) 2: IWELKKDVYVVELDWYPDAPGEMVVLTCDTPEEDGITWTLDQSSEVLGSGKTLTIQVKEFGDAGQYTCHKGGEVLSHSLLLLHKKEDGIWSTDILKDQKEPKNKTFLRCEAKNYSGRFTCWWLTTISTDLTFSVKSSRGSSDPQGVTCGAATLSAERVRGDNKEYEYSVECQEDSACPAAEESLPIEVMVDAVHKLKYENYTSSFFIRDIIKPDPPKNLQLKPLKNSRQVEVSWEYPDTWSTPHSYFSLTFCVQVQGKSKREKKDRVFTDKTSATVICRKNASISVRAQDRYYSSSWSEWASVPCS

human IL-12 [2] = biological target: T1, human IL-12; test: cell-based or functional assay
recombinant human IL-18 [3] = biological target: T2, recombinant human IL-18 (human, UniProt Q14116 37-193); test: cell-based or functional assay
recombinant human IL-18 [4] = biological target: T2, recombinant human IL-18; test: cell-based or functional assay; remark: listed apart in the source

Sequence of hIL-13 (P35225 35-146 limits assumed): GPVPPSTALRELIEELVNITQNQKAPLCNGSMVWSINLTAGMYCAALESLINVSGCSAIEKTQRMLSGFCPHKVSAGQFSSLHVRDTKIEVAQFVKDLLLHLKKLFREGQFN

- neutralization potency (IC50, nM), A-549 bioassay: TARC production (hIL-13): 0.05 nM
B1: 13C5.5L3F (anti-IL-13 monoclonal antibody) (antibody, V domains shown)
VH: EVTLRESGPGLVKPTQTLTLTCTLYGFSLSTSDMGVDWIRQPPGKGLEWLAHIWWDDVKRYNPALKSRLTISKDTSKNQVVLKLTSVDPVDTATYYCARTVSSGYIYYAMDYWGQGTLVTVSS
VL: DIQMTQSPSSLSASVGDRVTISCRASQDIRNYLNWYQQKPGKAPKLLIFYTSKLHSGVPSRFSGSGSGTDYTLTISSLQPEDIATYYCQQGLTPPLTFGGGTKVEIKR

- EC50 (human IL-12 [1]): 0.38 nM
- neutralization potency (IC50, nM), human IL-12 bioassay: IFN-γ release from PHA blast cells (human IL-12 [2]): 0.624 nM
B2: 1D4.1 (anti-hIL-12 monoclonal antibody) (antibody, V domains shown)
VH: EVTLRESGPALVKPTQTLTLTCTFSGFSLSKSVMGVSWIRQPPGKALEWLAHIYWDDDKYYNPSLKSRLTISKDTSKNQVVLTMTNMDPVDTATYYCARRGIRSAMDYWGQGTTVTVSS
VL: DIVMTQSPDSLAVSLGERATINCKASQSVSNDVAWYQQKPGQPPKLLIYYASNRYTGVPDRFSGSGSGTDFTLTISSLQAEDVAVYYCQQDYNSPWTFGGGTKVEIKR
notes: also called Control monoclonal antibody; parental monoclonal antibody 1D4.1

- neutralization potency (IC50, nM), KG-1 bioassay: IFN-γ production (recombinant human IL-18 [3]): 0.1 nM
- neutralization potency (IC50, nM), KG-1 bioassay: IFN-γ production (recombinant human IL-18 [4]): 0.58 nM
B3: mAb 2.5 (anti-hIL-18 monoclonal antibody) (antibody, V domains shown)
VH: EVQLVQSGTEVKKPGESLKISCKGSGYTVTSYWIGWVRQMPGKGLEWMGFIYPGDSETRYSPTFQGQVTISADKSFNTAFLQWSSLKASDTAMYYCARVGSGWYPYTFDIWGQGTMVTVSS
VL: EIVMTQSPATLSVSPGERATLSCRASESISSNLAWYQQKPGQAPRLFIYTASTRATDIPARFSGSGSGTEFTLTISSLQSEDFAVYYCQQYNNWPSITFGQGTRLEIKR
